Assay results reported in US20250376517A1 (AKESO BIOPHARMA, published 2025).

B1: positive control antibody IMAB362 (antibody, human IgG1, kappa, V domains shown)
VH: QVQLQQPGAELVRPGASVKLSCKASGYTFTSYWINWVKQRPGQGLEWIGNIYPSDSYTNYNQKFKDKATLTVDKSSSTAYMQLSSPTSEDSAVYYCTRSWRGNSFDYWGQGTTLTVSS
VL: DIVMTQSPSSLTVTAGEKVTMSCKSSQSLLNSGNQKNYLTWYQQKPGQPPKLLIYWASTRESGVPDRFTGSGSGTDFTLTISSVQAEDLAVYYCQNDYSYPFTFGSGTKLEIKR
notes: Human-murine chimeric antibody; produced by Akeso Biopharma Inc; also called Claudiximab; zolbetuximab
B2: anti-CLDN18.2 antibody 8C5.1 (antibody, V domains shown)
VH: EVQLVESGGGLVKPGGSLKLSCAASGFTFSNSAVSWVRQTPEKRLEWVATITSGVSYTYYLDSVRGRFTISRDNAKNTLYLQMSSLRSEDTAMYYCTRQFKGNALDYWGQGTSVTVSS
VL: DIVMTQSPSSLTVTAGEKVTMSCKSSQSLLNSGNQKNYLTWYQQKPGQPPKLLIYWASTRESGVPDRFTGSGSGTDFTLTINNFQAEDLAVYYCQNDYFYPLTFGAGTKLELK
notes: Murine monoclonal antibody purified from hybridoma LT020 supernatant on protein A; also called monoclonal antibody secreted by hybridoma cell line LT020
B3: humanized anti-human CLDN18.2 antibody 8C5.1H2L2 (antibody, human IgG1, kappa, V domains shown)
VH: EVQLVESGGGLVKPGGSLRLSCAASGFTFSNSAVSWVRQAPGKGLEWVSTITSGVSYTYYADSVKGRFTISRDNAKNSLYLQMNSLRAEDTAVYYCTRQFKGNALDYWGQGTSVTVSS
VL: DIVMTQSPSSLSVSPGERVTISCKSSQSLLNSGNQKNYLTWYQQKPGQPPKLLIYWASTRESGVPDRFSGSGSGTDFTLTISSFQAEDVAVYYCQNDYFYPLTFGAGTKLELKR
B4: humanized anti-human CLDN18.2 antibody 8C5.1H1L1 (antibody, human IgG1, kappa, V domains shown)
VH: EVQLVESGGGLVKPGGSLRLSCAASGFTFSNSAVSWVRQAPGKRLEWVATITSGVSYTYYLDSVRGRFTISRDNAKNSLYLQMNSLRAEDTAVYYCTRQFKGNALDYWGQGTSVTVSS
VL: DIVMTQSPSSLSVSPGERVTMSCKSSQSLLNSGNQKNYLTWYQQKPGQPPKLLIYWASTRESGVPDRFSGSGSGTDFTLTINSFQAEDVAVYYCQNDYFYPLTFGAGTKLELKR
B5: humanized anti-human CLDN18.2 antibody 8C5.1H1L2 (antibody, human IgG1, kappa, V domains shown)
VH: EVQLVESGGGLVKPGGSLRLSCAASGFTFSNSAVSWVRQAPGKRLEWVATITSGVSYTYYLDSVRGRFTISRDNAKNSLYLQMNSLRAEDTAVYYCTRQFKGNALDYWGQGTSVTVSS
VL: DIVMTQSPSSLSVSPGERVTISCKSSQSLLNSGNQKNYLTWYQQKPGQPPKLLIYWASTRESGVPDRFSGSGSGTDFTLTISSFQAEDVAVYYCQNDYFYPLTFGAGTKLELKR
B6: humanized anti-human CLDN18.2 antibody 8C5.1H2L1 (antibody, human IgG1, kappa, V domains shown)
VH: EVQLVESGGGLVKPGGSLRLSCAASGFTFSNSAVSWVRQAPGKGLEWVSTITSGVSYTYYADSVKGRFTISRDNAKNSLYLQMNSLRAEDTAVYYCTRQFKGNALDYWGQGTSVTVSS
VL: DIVMTQSPSSLSVSPGERVTMSCKSSQSLLNSGNQKNYLTWYQQKPGQPPKLLIYWASTRESGVPDRFSGSGSGTDFTLTINSFQAEDVAVYYCQNDYFYPLTFGAGTKLELKR
B7: humanized anti-human CLDN18.2 antibody 8C5.1H3L2 (antibody, human IgG1, kappa, V domains shown)
VH: EVQLVESGGGLVKPGGSLRLSCAASGFTFSNSAVSWVRQAPGKGLEWVSSITSGVSYTYYADSVKGRFTISRDNAKNSLYLQMNSLRAEDTAVYYCTRQFKGNALDYWGQGTSVTVSS
VL: DIVMTQSPSSLSVSPGERVTISCKSSQSLLNSGNQKNYLTWYQQKPGQPPKLLIYWASTRESGVPDRFSGSGSGTDFTLTISSFQAEDVAVYYCQNDYFYPLTFGAGTKLELKR
B8: humanized anti-human CLDN18.2 antibody 8C5.1H3L3 (antibody, human IgG1, kappa, V domains shown)
VH: EVQLVESGGGLVKPGGSLRLSCAASGFTFSNSAVSWVRQAPGKGLEWVSSITSGVSYTYYADSVKGRFTISRDNAKNSLYLQMNSLRAEDTAVYYCTRQFKGNALDYWGQGTSVTVSS
VL: DIVMTQSPSSLSVSPGERVTISCKSSQSLLNSGNQKNYLAWYQQKPGQPPKLLIYWASTRESGVPDRFSGSGSGTDFTLTISSLQAEDVAVYYCQNDYFYPLTFGAGTKLELKR
B9: humanized anti-human CLDN18.2 antibody 8C5.1H2L3 (antibody, human IgG1, kappa, V domains shown)
VH: EVQLVESGGGLVKPGGSLRLSCAASGFTFSNSAVSWVRQAPGKGLEWVSTITSGVSYTYYADSVKGRFTISRDNAKNSLYLQMNSLRAEDTAVYYCTRQFKGNALDYWGQGTSVTVSS
VL: DIVMTQSPSSLSVSPGERVTISCKSSQSLLNSGNQKNYLAWYQQKPGQPPKLLIYWASTRESGVPDRFSGSGSGTDFTLTISSLQAEDVAVYYCQNDYFYPLTFGAGTKLELKR

Experiments:
[1] = target: T1, human Claudin18.2 (CLDN18.2) on the surface of CHO-K1-CLDN18.2 cells (human, UniProt P56856-2 1-261); test: flow cytometry (FACS) on CHO-K1-CLDN18.2 cells
T1 construct: whole, on cells; Membrane protein overexpressed on CHO-K1 cells; also called hCLDN18.2; antigen on the surface of CHO-K1-CLDN18.2 cell
Protocol: CHO-K1-CLDN18.2 cells in logarithmic growth phase were collected and transferred to a 1.5 mL EP tube at 3×10⁵ cells/well, and then 1% PBSA was added. The mixture was centrifuged at 1000× g for 5 min, followed by removal of the supernatant. […] 1000 μL of 1% PBSA was added, and the mixture was centrifuged at 1000×g for 5 min, followed by removal of the supernatant and washing twice with 1% PBSA. […] The mixture was resuspended and well mixed, and incubated on ice for 40 min in the dark. 1000 μL of 1% PBSA was added, and the mixture was centrifuged at 1000×g for 5 min, followed by removal of the supernatant and washing twice with 1% PBSA. 200 μL of 1% PBSA was added to resuspend the cell pellets, and the mixture was transferred to a flow cytometry tube for FACSCalibur assay.

[2] = target: T1, human Claudin18.2 (CLDN18.2) on the …; test: flow cytometry (FACS) on CHO-K1-CLDN18.2 cells; remark: listed apart in the source
[3] = target: T1, human Claudin18.2 (CLDN18.2) on the …; test: cell ELISA on CHO-K1-CLDN18.2 cells
Protocol: (§1) CHO-K1-CLDN18.2 cells (Chinese hamster ovary cells CHO-K1 overexpressing CLDN18.2, CHO-K1 purchased from Cell Resource Center, Institute of Basic Medical Sciences, Chinese Academy of Medical Sciences, Cat. No.: 3111C0001CCC000004) were plated on a cell plate (Corning, 3599) at 2×10⁴ cells/well and cultured overnight at 5% CO₂ and 37° C., and then the cell plate in which the cells were incubated was washed once with PBST and blocked for 2 h at 37° C. using PBST containing 1% BSA as a blocking solution. After blocking, the plate was washed 3 times with PBST. The ELISA plate containing the test antibodies was incubated at 37° C. for 30 min and then washed 3 times with PBST. […] Then, the plate was incubated at 37° C. for 30 min. After incubation, the plate was washed 4 times with PBST, TMB (Neogen, 308177) was added for color developing in the dark for 5 min, and then a stop solution was added to terminate the chromogenic reaction. The ELISA plate was put into a microplate reader immediately, and the OD value of each well in the ELISA plate was read at 450 nm. The data were analyzed and processed by SoftMax Pro 6.2.1.

[4] = target: T1, human Claudin18.2 (CLDN18.2) on the …; test: cell ELISA on CHO-K1-CLDN18.2 cells; remark: listed apart in the source
Protocol: as §1

[5] = target: T1, human Claudin18.2 (CLDN18.2) on the …; test: cell ELISA on CHO-K1-CLDN18.2 cells; remark: listed apart in the source
Protocol: as §1

[6] = target: T1, human Claudin18.2 (CLDN18.2) on the …; test: cell ELISA on CHO-K1-CLDN18.2 cells; antibody 0.037 µg/mL
Protocol: as §1

[7] = target: T1, human Claudin18.2 (CLDN18.2) on the …; test: cell ELISA on CHO-K1-CLDN18.2 cells; antibody 0 µg/mL (background, no antibody)
Protocol: as §1

[8] = target: T1, human Claudin18.2 (CLDN18.2) on the …; test: cell ELISA on CHO-K1-CLDN18.2 cells; antibody 1.000 µg/mL
Protocol: as §1

[9] = target: T1, human Claudin18.2 (CLDN18.2) on the …; test: cell ELISA on CHO-K1-CLDN18.2 cells; antibody 0.012 µg/mL
Protocol: as §1

[10] = target: T1, human Claudin18.2 (CLDN18.2) on the …; test: cell ELISA on CHO-K1-CLDN18.2 cells; antibody 3 µg/mL
Protocol: as §1

[11] = target: T1, human Claudin18.2 (CLDN18.2) on the …; test: cell ELISA on CHO-K1-CLDN18.2 cells; antibody 0.111 µg/mL
Protocol: as §1

[12] = target: T1, human Claudin18.2 (CLDN18.2) on the …; test: cell ELISA on CHO-K1-CLDN18.2 cells; antibody 0.333 µg/mL
Protocol: as §1

[13] = target: T1, human Claudin18.2 (CLDN18.2) on the …; test: cell ELISA on CHO-K1-CLDN18.2 cells; antibody 0.004 µg/mL
Protocol: as §1

Binder	EC50 [2]	EC50 [4]	EC50 [5]	other results
B1	0.358 µg/mL	153 pM	182 pM	EC50 [1]: 0.687 µg/mL; EC50 [3]: 201 pM
B2				OD (450 nm) [6]: 1.07 OD; OD (450 nm) [7]: 0.086 OD; EC50 [1]: 0.214 µg/mL; OD (450 nm) [8]: 1.79 OD; OD (450 nm) [9]: 0.697 OD; OD (450 nm) [10]: 1.61 OD; OD (450 nm) [11]: 1.42 OD; EC50 [3]: 153 pM; OD (450 nm) [12]: 1.63 OD; OD (450 nm) [13]: 0.344 OD
B3	0.234 µg/mL	94 pM		
B4	0.216 µg/mL	54 pM		
B5	0.242 µg/mL	108 pM		
B6	0.267 µg/mL	91 pM		
B7	0.213 µg/mL		103 pM	
B8	0.281 µg/mL			
B9	0.243 µg/mL		81 pM	
